Assay [1] addresses human ICAM-1 (native, expressed on human cells: HUVEC, Caco-2) (human) (UniProt P05362). The assay is described as follows: competition: free non-specific IgG against FITC anti-ICAM carriers on Caco-2 cells; fluorescence microscopy.
Assay [2] shares this target. As to the kind of experiment: FITC IgG polystyrene carriers on fixed TNF-α-activated Caco-2 cells; fluorescence microscopy.
The target of assay [3] is T1, human ICAM-1 (native, expressed on human cells: HUVEC, Caco-2) (human, UniProt P05362 28-532).
T1 construct: whole, on cells; also called intercellular adhesion molecule 1; native human ICAM-1
The assay is described as follows: 100 nm FITC polystyrene carriers coated with peptide on endothelial cells; fluorescence microscopy.

For assay [4], the target named is T1, human ICAM-1 (native, expressed on …). The assay is described as follows: competition: synthetic peptide against FITC anti-ICAM polystyrene nanocarriers on human endothelial cells; fluorescence microscopy. An excerpt: (A) ELISA measurement of the binding of 7-mer peptide expressing phage library to immobilized recombinant ICAM-1 (consisting of the two most membrane-distal Ig domains −1 and 2- of mouse ICAM-1 fused to human Fc or hFc), versus their binding to control hFc. (B) Relative specificity and (C) relative affinity of ICAM-1-targeting peptide phages, determined by ELISA from the experiment in (A). (D) Relative binding of phages expressing 7-mer peptides to native ICAM-1 expressed on the surface of HV5 mouse endothelial cells, either control or activated with TNFalpha to mimic a disease phenotype. Binding was determined by microscopy using a fluorescently-labeled antibody to the phage capsid. The line in the graph indicates the level of binding of A1 phage to 293 cells, which are voided of ICAM-1-expression. […] (G) Binding of FITC-labeled anti-ICAM polystyrene nanocarriers to human endothelial cells was evaluated by fluorescence microscopy after incubation with cells in the absence (100% level) or presence of anti-ICAM antibody, ICAM-1-targeting synthetic peptides, or peptides with their scramble sequence (e.g., A1 sc).

The target in assay [5] is T2, mouse ICAM-1 chimera: the two most membrane-distal Ig domains (1 and 2) of mouse ICAM-1 fused to human Fc (mouse; human, UniProt P13597 28-214, limits assumed).
T2 construct: domain: the two most membrane-distal Ig domains -1 and 2-; also called mouse ICAM-1/Fc; mouse ICAM-1/hFc; not shown: human Fc (hFc)
As to the kind of experiment: phage ELISA on immobilized mouse ICAM-1/hFc. The text has this:
(§1) Example 5 details development of the 7-mer phage-display derived peptides against ICAM-1. These were identified and isolated from a random library by using a chimeric ICAM-1 protein consisting of the two most membrane-distal Ig domains of mouse ICAM-1 fused to human Fc (hFc). One round of negative selection against hFc, followed by three rounds of positive selection against mouse ICAM-1/hFc, rendered six phage clones (A1, B7, B8, B9, B10, and D6), which recognized immobilized mouse ICAM-1 (FIG. 5A).
(§2) (A) ELISA measurement of the binding of 7-mer peptide expressing phage library to immobilized recombinant ICAM-1 (consisting of the two most membrane-distal Ig domains −1 and 2- of mouse ICAM-1 fused to human Fc or hFc), versus their binding to control hFc. (B) Relative specificity and (C) relative affinity of ICAM-1-targeting peptide phages, determined by ELISA from the experiment in (A). (D) Relative binding of phages expressing 7-mer peptides to native ICAM-1 expressed on the surface of HV5 mouse endothelial cells, either control or activated with TNFalpha to mimic a disease phenotype. Binding was determined by microscopy using a fluorescently-labeled antibody to the phage capsid.
(In general: In an ELISA, binding on a coated surface is turned into a signal by an enzyme label.)

Assay [6] concerns the target mouse ICAM-1 (native, expressed on mouse endothelial cells) (mouse) (UniProt P13597). The assay is described as follows: phage binding to H5V mouse endothelial cells; microscopy with fluorescent antibody to the phage capsid.
Assay [7] has as its target T2, mouse ICAM-1 chimera: the two most …. The assay is described as follows: phage ELISA, binding to mouse ICAM-1/hFc relative to control hFc.
Description: as §1, §2

For assay [8] the target is unchanged. The assay is described as follows: phage ELISA on immobilized mouse ICAM-1/hFc, relative to non-selected phages.
Description: as §1, §2

For assay [9] the target is unchanged. The assay is described as follows: γ3 absorbed on 100 nm FITC polystyrene particles; nitrocellulose-immobilized ICAM-1/Fc vs albumin; fluorescence microscopy. How it is done: (A) The peptide γ3 was absorbed on the surface of 100 nm FITC-labeled polystyrene carriers and the resulting products were incubated for 15 min on nitrocellulose-immobilized albumin vs human or mouse ICAM-1 chimeras containing ICAM-1-Ig domains 1 and 2 fused to human Fc sequence. The membranes were washed and analyzed by fluorescence microscopy to quantify the number of carriers bound per area. Data are expressed relative to non-specific binding of γ3 carriers to albumin controls (dotted line). A comparison to binding of anti-ICAM carriers is provided (dashed line). (B) Binding of FITC-labeled polystyrene carriers coated by absorption with the peptide γ3 and recombinant acid sphingomyelinase (ASM, a therapeutic enzyme) to activated HUVEC (bars) vs ICAM-1-negative 293 cells (dotted line) was quantified by fluorescence microscopy after 1 h incubation at 37° C., in the absence or presence of excess γ3, anti-ICAM, γ3 scramble peptide, or mannose 6 phosphate (M6P). […] (C) HUVEC lysosomes were labeled for 2 h with Texas-red dextran at 37° C. […] Co-localization of FITC carriers with Texas-red dextran-lysosomes was quantified by fluorescence microscopy. […] Co-localization of FITC 2γ3 carriers with Texas red dextran-labeled lysosomes was assessed by microscopy 3 h post-internalization. […]

T2 sequence (P13597 28-214 limits assumed, stated change not applied): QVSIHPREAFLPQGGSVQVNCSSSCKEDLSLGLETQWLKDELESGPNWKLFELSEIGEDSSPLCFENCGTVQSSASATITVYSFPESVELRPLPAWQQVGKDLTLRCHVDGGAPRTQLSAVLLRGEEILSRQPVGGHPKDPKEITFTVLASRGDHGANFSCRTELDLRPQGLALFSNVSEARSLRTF
T1 sequence (P05362 28-532): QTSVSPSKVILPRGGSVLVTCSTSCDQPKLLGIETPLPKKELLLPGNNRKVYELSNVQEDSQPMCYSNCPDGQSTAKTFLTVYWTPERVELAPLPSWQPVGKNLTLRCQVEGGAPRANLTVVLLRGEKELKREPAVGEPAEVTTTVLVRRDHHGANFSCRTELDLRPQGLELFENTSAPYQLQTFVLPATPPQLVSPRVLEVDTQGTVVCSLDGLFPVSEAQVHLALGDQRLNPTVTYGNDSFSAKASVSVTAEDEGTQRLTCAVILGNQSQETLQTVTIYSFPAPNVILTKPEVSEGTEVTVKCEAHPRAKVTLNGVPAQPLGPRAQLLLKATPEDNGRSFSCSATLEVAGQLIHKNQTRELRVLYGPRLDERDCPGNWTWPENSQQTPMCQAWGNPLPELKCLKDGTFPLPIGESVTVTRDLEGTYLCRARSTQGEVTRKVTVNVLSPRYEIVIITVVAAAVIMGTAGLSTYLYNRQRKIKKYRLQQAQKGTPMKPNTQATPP
Chain of human ICAM-1 (native, expressed on human cells: HUVEC, Caco-2) (human) (P05362 28-532): as above

In the case of non-specific IgG (control) (antibody), the carrier binding, % of the control value with no competitor in assay [1] was 102 % of control. The carriers/cell (carriers/cell) in assay [2] turned out to be 1.3.

B1: 2γ3 peptide (peptide)
peptide: NNQKIVNIKEKVAQIEA
notes: Derivative of γ3, tested absorbed on polystyrene or PLGA carriers; also called 2γ3 carriers; 2γ3/ASM carriers
As to B1, the binding result in [3] is “binds”.

B2: 3γ3 peptide (peptide)
peptide: NNQKLVNIKEKVAQIEA
notes: Derivative of γ3, tested absorbed on polystyrene carriers; also called 3γ3 carriers; 3γ3/ASM carriers
In the case of B2, in assay [3], the binding result is listed as “binds”.

B3: B8 peptide (phage display-derived 7-mer) (peptide)
peptide: GSLLSAA
notes: Tested as a phage clone and as a synthetic peptide; The assay field says which; also called B8 clone
Take B3: the binding result in assay [4] was “binds”.

B4: B9 peptide (phage display-derived 7-mer) (peptide)
peptide: FSPHSRT
notes: Tested as a phage clone and as a synthetic peptide; The assay field says which; also called B9 clone
As for B4, the binding result in [5] is “binds”. The affinity, % of A1 in assay [6] is 72.3 % of A1.

B5: A1 peptide (phage display-derived 7-mer) (peptide)
peptide: YPASYQR
notes: Tested as a phage clone (5 copies of the peptide on the capsid; coat protein fusion not described) and as a peptide synthesized in vitro; The assay field says which; also called A1 clone; clone A1 phages
Regarding B5, in [7], the “specificity vs hFc” value was around 5.1 fold. Further, the “affinity, fold over non-selected phages” value in assay [8] was around 4.7 fold.
As for GCKLCAQ [D6 peptide (phage display-derived 7-mer)], in [6], the affinity, % of A1 was 92.9 % of A1.

B6: γ3 peptide (17 amino acid peptide derived from the γ chain of fibrinogen) (peptide)
peptide: NNQKIVNLKEKVAQLEA
notes: Synthetic peptide; Tested mostly absorbed on 100 nm FITC polystyrene carriers, in some assays together with recombinant acid sphingomyelinase (ASM); also called γ3 carriers; γ3/ASM carriers
In the case of B6, in assay [9], the binding result is reported as “binds”.

Values taken from US20120263652A1 (UNIVERSITY OF MARYLAND COLLEGE PARK, published 2012).
